Each block holds one binder with its values, some of them ahead of it.
What was measured:
[1] = target: T1, CD73 on the surface of human cells (human, UniProt P21589 27-549); experiment: Flow cytometry on NCI-H1299 cells
T1 construct: whole, on cells; The cell line of each value is named under assay or readout; also called CD73 on the surface of tumor cells; CD73 enzyme on the surface of MDA-MB-231 cells
T1 sequence (looked up): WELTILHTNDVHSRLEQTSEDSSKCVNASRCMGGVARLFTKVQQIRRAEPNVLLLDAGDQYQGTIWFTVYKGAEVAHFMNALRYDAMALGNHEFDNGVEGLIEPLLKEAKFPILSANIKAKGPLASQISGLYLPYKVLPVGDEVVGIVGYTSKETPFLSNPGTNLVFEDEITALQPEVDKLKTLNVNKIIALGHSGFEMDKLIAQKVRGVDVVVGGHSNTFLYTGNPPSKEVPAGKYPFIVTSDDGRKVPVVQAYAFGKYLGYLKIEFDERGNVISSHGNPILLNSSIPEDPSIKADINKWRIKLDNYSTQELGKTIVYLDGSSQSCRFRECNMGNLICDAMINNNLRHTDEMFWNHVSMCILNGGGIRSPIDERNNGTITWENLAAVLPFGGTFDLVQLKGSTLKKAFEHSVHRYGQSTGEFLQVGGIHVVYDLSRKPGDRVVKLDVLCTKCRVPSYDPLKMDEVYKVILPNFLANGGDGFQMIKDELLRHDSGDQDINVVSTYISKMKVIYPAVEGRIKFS
Protocol: 100 μL of the test antibodies diluted from 10 μg/mL to 0.016 μg/mL in a 5-fold gradient were used as the primary antibodies, and were mixed with 1×10⁵ tumor cells suspended in 100 μL RPMI-1640 serum-free medium to make a final concentration of 5 μg/mL diluted to 0.008 μg/mL, and then incubated at 4° C. for 1 h. The cells were washed twice with PBS to remove unbound primary antibodies, and then the target cells were incubated with 200 μLPE-labeled secondary antibody at 2 μg/mL at 4° C. for 30 min. The cells were washed twice with PBS to remove unbound secondary antibodies, and finally the cells were resuspended in 200 μL PBS. The binding affinity of the test antibodies to CD73 on the surface of the corresponding cells was measured by flow cytometry.
The binding affinity of the humanized antibodies to NCI-H1299 cells was detected according to the method for determining the binding affinity of CD73 on the surface of tumor cells in Example 5.

[2] = target: T2, extracellular domain of human CD73 protein, C-terminus polyhistidine-tagged (human, UniProt P21589 27-547); experiment: ELISA, coated CD73-ECD, method of Example 3
T2 construct: also the immunogen; also called CD73-ECD; human CD73-ECD
T2 sequence: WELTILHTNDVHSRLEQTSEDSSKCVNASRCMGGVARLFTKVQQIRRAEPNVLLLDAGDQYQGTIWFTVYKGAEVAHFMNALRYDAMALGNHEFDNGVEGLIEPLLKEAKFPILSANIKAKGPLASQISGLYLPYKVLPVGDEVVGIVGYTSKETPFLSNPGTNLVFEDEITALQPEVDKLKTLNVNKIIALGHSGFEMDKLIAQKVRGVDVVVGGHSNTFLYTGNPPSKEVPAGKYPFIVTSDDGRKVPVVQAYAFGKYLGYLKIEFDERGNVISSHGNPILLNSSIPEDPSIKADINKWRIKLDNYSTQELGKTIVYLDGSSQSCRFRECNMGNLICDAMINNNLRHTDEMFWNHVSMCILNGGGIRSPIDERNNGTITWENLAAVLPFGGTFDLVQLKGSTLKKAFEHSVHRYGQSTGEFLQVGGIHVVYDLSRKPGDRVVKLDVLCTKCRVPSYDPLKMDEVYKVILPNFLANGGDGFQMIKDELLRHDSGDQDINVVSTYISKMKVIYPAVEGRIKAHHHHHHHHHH
Protocol: (§1) The CD73 protein extracellular region (CD73-ECD) was diluted to 1 μg/mL using the coating solution, and an ELISA plate was coated at 100 μL/well at 4° C. overnight. Excess antigens were washed away, and the plate was blocked with 1% BSA at room temperature for 2 hours. Then, 5-fold gradient dilutions of each monoclonal antibody were added at 100 μL/well and incubated at room temperature for 1 hour. Unbound antibodies were washed away, and an appropriate concentration of Staphylococcal protein A labeled with horseradish peroxidase was added at 100 μL/well and incubated at room temperature for 0.5 hours. Unbound secondary antibodies were washed away, and TMB color development solution was added to react for about 15 minutes. 1M HCL was added at 50 µL/well to terminate the color development reaction, and then the absorbance was measured at 450 nm and the data was analyzed.
Based on the above mutants, 5-E11ASCS was designed and prepared, and the CD73 antigen ELISA binding affinity test was performed according to the method of Example 3.

[3] = target: T2, extracellular domain of human CD73 …; experiment: ELISA on CD73-ECD, 4 µL supernatant of antibody expression, first of two readings; PBS 0.19, 0.18
Protocol: as §1
(§2) CD73 antigen ELISA binding affinity test was performed according to the method of Example 3.

[4] = target: T2, extracellular domain of human CD73 …; experiment: ELISA on CD73-ECD, 20 µL supernatant of antibody expression, first of two readings; PBS 0.19, 0.18
Protocol: as §1, §2

[5] = target: T2, extracellular domain of human CD73 …; experiment: ELISA on CD73-ECD, 4 µL supernatant of antibody expression, second of two readings; PBS 0.19, 0.18
[6] = target: T2, extracellular domain of human CD73 …; experiment: ELISA on CD73-ECD, 0.8 µL supernatant of antibody expression, first of two readings; PBS 0.19, 0.18
Protocol: as §1, §2

[7] = target: T2, extracellular domain of human CD73 …; experiment: ELISA on CD73-ECD, 100 µL supernatant of antibody expression, first of two readings; PBS 0.19, 0.18
Protocol: as §1, §2

[8] = target: T2, extracellular domain of human CD73 …; experiment: ELISA on CD73-ECD, 20 µL supernatant of antibody expression, second of two readings; PBS 0.19, 0.18
Protocol: as §1, §2

[9] = target: T2, extracellular domain of human CD73 …; experiment: ELISA on CD73-ECD, 100 µL supernatant of antibody expression, second of two readings; PBS 0.19, 0.18

- Max MFI [1]: 105000 MFI
B1: chimeric nanobody 3-D7 (Fc fusion)
VHH: QRQLVESGGGLVQPGGSLRLSCAASGFLLDYYVIGWFRQAPGKEREGVSCISGSDRSTYYADSVKGRFTISRDNAKNTVYLQMNSLKPEDTAVYFCAADPSPVTVQAMCLPRFPVPYWGQGTQVTVST
notes: Human-alpaca chimeric antibody (VHH on hIgG1 Fc); Only the VHH is tied to the tested molecule; 37-39 exist for 3-D7-FC1/FC2/FC3; also called original antibody 3-D7

- EC50 [2]: 0.05 µg/mL
- ELISA reading (not named on the sheet) [3]: 4.23
- ELISA reading (not named on the sheet) [4]: 4.19
- ELISA reading (not named on the sheet) [5]: 4.17
- ELISA reading (not named on the sheet) [6]: 4.18
- ELISA reading (not named on the sheet) [7]: 4.33
- ELISA reading (not named on the sheet) [8]: 4.32
- ELISA reading (not named on the sheet) [9]: 4.23
B2: chimeric nanobody 5-E11 (Fc fusion)
VHH: ALQLVESGGGLVQPGGSLRLSCEVSGFTLDYYNIGWFRQAPGKEREGVSCSSNSGGSTYYADSVKGRFTISRDNAKNTVYLQMNSLKPEDTGVYYCAAYRGWHPSLDARVYDYWGQGTEVTVSS
notes: Human-alpaca chimeric antibody (VHH on hIgG1 Fc); Only the VHH is tied to the tested molecule; also called original antibody 5-E11
